Reference: patent US20040001848

Columns and labels:
[1] = target: bovine serum albumin (BSA) (UniProt P02769)
ovalbumin = ovalbumin (UniProt P01012)
β-casein = target: T1, β-casein (UniProt P02666)
T1 sequence: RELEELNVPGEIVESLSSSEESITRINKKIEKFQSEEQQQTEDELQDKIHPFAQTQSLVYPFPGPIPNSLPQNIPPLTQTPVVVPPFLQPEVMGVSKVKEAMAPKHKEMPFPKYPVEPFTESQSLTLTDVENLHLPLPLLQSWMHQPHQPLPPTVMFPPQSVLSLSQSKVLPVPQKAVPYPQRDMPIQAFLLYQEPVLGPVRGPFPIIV

[2] = test system: recombinant serum albumin
[3] = test system: myelin basic protein (MBP)

Chain of ovalbumin (P01012 2-386): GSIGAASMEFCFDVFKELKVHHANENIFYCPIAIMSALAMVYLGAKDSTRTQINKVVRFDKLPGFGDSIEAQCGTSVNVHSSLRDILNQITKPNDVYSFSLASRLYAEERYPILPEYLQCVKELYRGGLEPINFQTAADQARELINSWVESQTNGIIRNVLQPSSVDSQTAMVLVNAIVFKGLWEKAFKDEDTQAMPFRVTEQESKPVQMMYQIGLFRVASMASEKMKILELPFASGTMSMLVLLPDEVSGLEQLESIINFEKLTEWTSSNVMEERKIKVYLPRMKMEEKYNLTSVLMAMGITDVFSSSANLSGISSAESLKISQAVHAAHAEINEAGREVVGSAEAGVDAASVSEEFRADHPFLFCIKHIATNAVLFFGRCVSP
Chain of bovine serum albumin (BSA) (P02769 25-607): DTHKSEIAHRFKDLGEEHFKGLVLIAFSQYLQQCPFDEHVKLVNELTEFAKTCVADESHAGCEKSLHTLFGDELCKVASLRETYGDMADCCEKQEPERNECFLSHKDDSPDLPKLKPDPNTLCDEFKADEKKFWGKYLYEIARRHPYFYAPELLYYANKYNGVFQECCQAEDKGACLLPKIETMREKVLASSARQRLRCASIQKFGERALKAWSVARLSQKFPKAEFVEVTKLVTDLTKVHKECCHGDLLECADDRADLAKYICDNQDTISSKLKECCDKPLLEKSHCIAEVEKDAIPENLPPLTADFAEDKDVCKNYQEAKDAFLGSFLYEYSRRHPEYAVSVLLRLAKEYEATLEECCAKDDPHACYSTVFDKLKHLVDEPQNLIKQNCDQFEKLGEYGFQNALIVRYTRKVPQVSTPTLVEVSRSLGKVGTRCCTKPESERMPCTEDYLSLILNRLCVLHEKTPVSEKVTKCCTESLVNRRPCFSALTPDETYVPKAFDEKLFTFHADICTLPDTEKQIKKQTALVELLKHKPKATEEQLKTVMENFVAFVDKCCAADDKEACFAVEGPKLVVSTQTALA

Substance: recombinant 6×-His-TGase fusion protein of Streptomyces mobaraensis ATCC 29032
- cross-linking of native protein [1]: there was no cross-linking
- cross-linking of native protein (ovalbumin): there was no cross-linking
- cross-linking of a mixture of β-casein and glucose oxidase on SDS-PAGE (β-casein): both protein species can be cross-linked by the purified recombinant SM TGase
- cross-linking of β-casein on SDS-PAGE (β-casein): the cross-linked (CL) β-casein migrated as a smear on the SDS-PAGE gel indicating a mixture of high molecular weight polymers of different length
- cross-linking of β-casein on SDS-PAGE, 0 mM DTT (β-casein): had no cross-linking activity on β-casein
- cross-linking of β-casein on SDS-PAGE, about 2 mM DTT (β-casein): β-casein run as a mixture of cross-linked polymer and monomer
- cross-linking of β-casein on SDS-PAGE, about 10 mM DTT (β-casein): cross-linking of all detectable β-casein substrates in the reaction
- cross-linking of native protein (histone H3 protein): there was no cross-linking
- cross-linking of native protein on SDS-PAGE (histone H3 protein): complete and partial cross-linking was both observed for native histine H3 protein under the condition tested
- cross-linking of recombinant serum albumin on SDS-PAGE [2]: revealed a mixture of very high molecular weight polymers of different length
- cross-linking of native protein [3]: there was no cross-linking
- cross-linking of BSA5 peptide on SDS-PAGE (BSA5 peptide): increased amount of recombinant SM TGase corresponding to an increase in cross-linked (CL) BSA5 peptide
- cross-linking of β-amyloid (1-42) peptide on SDS-PAGE, 1 to 3 hours (β-amyloid peptide (1-42)): can be cross-linked by the recombinant transglutaminase as shown as a smear of a mixture of cross-linked peptides
